For the assay, the target named is Human IgG. As to the kind of experiment: plate coated with human IgG, luminescence (Imax) after CaCl2.

As to “Protein A-AQ fusion protein (from UniProt P02976 37-307; P07164 9-196)”, the concentration at which the luminescence intensity reached a plateau was 10 ng/mL.

(Values after patent US20080193980A1.)
